Changes are numbered by the printed parent chain. In names and notes the source's numbering stands. Read-outs that look alike come from different tables or passages of the source. Blank lines part the entries; values can stand above or below the molecule they belong to.
Key:
[1] = target: MDR1 P-glycoprotein (Pgp) (Homo sapiens, UniProt P08183); details: cited from earlier work
293T cells = assay: Mammalian expression, transient transfection, light output in 293T cells; assay type: cell-based, human
Text: (§1) Mammalian Expression: In order to construct mammalian expression vectors, bacterial expression vectors containing the desired mutations were used as templates for PCR, with primers designed such that the N-terminal pelB sequence would be replaced by a methionine codon and a C-terminal stop codon would replace the Myc epitope and 6×His tag. The primers also contained appropriate NheI and HindIII restriction sites to allow insertion of the product into the pcDNA 3.1 plasmid (Invitrogen). The resultant plasmids were transiently transfected using SuperFect (Qiagen) into 293T or Chinese Hamster Ovarian (CHO, ATCC# CCL-61) cells growing in 24 well plates following the manufacturer's protocol. Twenty-four hours post transfection, 0.5 μg/well of coelenterazine was added, and the plates were imaged in an IVIS 50 imaging system (Xenogen, Alameda, Calif.).

CHO cells = assay: Mammalian expression, transient transfection, light output in CHO cells; assay type: cell-based, Chinese Hamster; details: pcDNA 3.1 CMV plasmid, 24 hours post transfection, coelenterazine
Text: as §1

[2] = Serum stability in mouse serum at 37° C.; assay type: in vitro ADME; details: mouse serum, 37° C., mono-exponential fit
Procedure: (§2) Serum stability measurements were done by mixing 0.5 μl dilute Luciferase with either 20 μl mouse serum or 50 μl rat serum (Equitech-Bio, Kerrville, Tex.) placing the sample in a 37° C. incubator, and removing aliquots for activity testing. To calculate serum half-lives, mono-exponential decay curves were fit to the serum stability data using a Nelder/Mead Simplex non-linear least squares minimization algorithm provided by the Octave numerical programming language. Emission spectra at ambient temperature were measured using a Triax 320 (Horiba Jobin Yvon, Edison, N.J.), which incorporates an optical grating device with a liquid N2 cooled CCD detector.

[3] = Luciferase activity of purified RLuc mutants (light output integrated over 10 s, luminometer); assay type: biochemical; details: for Activity (relative to RLuc) bc: benzyl-coelenterazine; for Activity (relative to RLuc) bc / Activity (relative to RLuc) bdc / Activity (relative to RLuc) cp / Activity (relative to RLuc) n / Activity (relative to RLuc) native: relative to native enzyme; for Activity (relative to RLuc) bdc: bisdeoxycoelenterazine; for Activity (relative to RLuc) cp: coelenterazine-cp; for Activity (relative to RLuc) n: coelenterazine-n; for Activity (relative to RLuc) native: native coelenterazine
Text: Luminometer Calibration: Light measurements were made using a Turner 20/20 and later a Turner 20/20n luminometer (Turner Designs, Sunnyvale, Calif.). The luminometers were calibrated to absolute units (photons/s) using the luminol light standard performed in dimethyl sulfoxide (DMSO). No corrections were applied for the spectral sensitivity of the luminometer, as the spectral peak of luminol chemiluminescence in DMSO (486 nm) is close to the spectral peak of Renilla Luciferase bioluminescence (482 nm).
Characterization of Renilla Luciferase Mutants: Luciferase activity was measured by adding 1 μl of sample (diluted as necessary in EB containing 1% HSA) to 100 μl room temperature 100 mM sodium phosphate buffer (pH 7), manually adding 1 μl of 0.5 μg/μl coelenterazine or analog, manually mixing, and reading for 10 s in a luminometer. The time between the addition of the luciferin and the start of measurement was approximately 4 s.

[4] = Bioluminescence emission spectra; assay type: physicochemical; details: emission spectrum with native coelenterazine
Procedure: as §2

[5] = Quantum yield measurements; assay type: biochemical; details: for Quantum Yield (%) bc: benzyl-coelenterazine; for Quantum Yield (%) bdc: bisdeoxycoelenterazine; for Quantum Yield (%) cp: coelenterazine-cp; for Quantum Yield (%) n: coelenterazine-n; for Quantum Yield (%) native: native coelenterazine
Procedure: For quantum yield measurements, separate 1 μl drops of protein (about 2 pm) and substrate (0.2 pm) were placed in a tube, 100 μl of 100 mM sodium phosphate buffer (pH 7) was injected by the luminometer to mix, and the total light output was integrated (generally 5-10 min). For coelenterazine-n, the protein amount was increased 10 fold and the acquisition time lengthened to insure the reaction approached completion.

[6] = Serum stability in rat serum at 37° C.; assay type: in vitro ADME; details: mono-exponential fit
Procedure: as §2

MDR1 P-glycoprotein (Pgp), sequence (P08183 whole entry): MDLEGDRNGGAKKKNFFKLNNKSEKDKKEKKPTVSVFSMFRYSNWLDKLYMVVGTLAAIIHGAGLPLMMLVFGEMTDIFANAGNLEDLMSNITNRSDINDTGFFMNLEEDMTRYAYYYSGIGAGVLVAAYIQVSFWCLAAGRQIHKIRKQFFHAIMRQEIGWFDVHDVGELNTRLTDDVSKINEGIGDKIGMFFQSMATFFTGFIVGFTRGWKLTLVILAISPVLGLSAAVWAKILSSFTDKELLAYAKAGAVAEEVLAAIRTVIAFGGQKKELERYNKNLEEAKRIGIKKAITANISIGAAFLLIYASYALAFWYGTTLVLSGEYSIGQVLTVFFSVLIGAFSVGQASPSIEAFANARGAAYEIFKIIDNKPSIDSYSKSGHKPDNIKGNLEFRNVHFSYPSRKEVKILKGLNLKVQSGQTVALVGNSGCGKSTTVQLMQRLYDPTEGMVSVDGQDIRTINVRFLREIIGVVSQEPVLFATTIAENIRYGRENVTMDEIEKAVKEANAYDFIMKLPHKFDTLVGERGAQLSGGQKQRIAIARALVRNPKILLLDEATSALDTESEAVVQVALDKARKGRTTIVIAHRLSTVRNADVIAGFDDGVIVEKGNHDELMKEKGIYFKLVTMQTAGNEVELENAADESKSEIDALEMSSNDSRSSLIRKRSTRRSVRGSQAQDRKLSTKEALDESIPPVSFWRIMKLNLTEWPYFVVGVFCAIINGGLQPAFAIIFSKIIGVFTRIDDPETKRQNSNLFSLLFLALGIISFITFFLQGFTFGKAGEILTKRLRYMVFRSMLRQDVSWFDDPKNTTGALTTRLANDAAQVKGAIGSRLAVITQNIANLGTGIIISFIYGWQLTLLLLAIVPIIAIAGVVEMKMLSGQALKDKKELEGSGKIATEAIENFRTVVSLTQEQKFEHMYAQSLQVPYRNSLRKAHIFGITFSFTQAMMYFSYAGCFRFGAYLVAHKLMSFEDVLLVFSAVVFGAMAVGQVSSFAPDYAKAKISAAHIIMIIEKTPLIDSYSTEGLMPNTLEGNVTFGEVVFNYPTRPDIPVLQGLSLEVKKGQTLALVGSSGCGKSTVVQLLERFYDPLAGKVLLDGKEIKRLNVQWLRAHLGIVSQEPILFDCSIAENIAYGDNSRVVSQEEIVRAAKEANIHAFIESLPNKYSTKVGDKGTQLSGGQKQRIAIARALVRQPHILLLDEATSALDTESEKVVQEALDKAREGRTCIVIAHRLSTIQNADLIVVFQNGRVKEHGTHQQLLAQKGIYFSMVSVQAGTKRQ

Molecule: Oc1ccc(Cc2nc3c(CC4CCCC4)nc(-c4ccc(O)cc4)cn3c2O)cc1 [coelenterazine-cp]
- substrate for MDR1 P-glycoprotein (Pgp) ([1]; mammalian cells): not substrates for Pgp

Molecule: Coelenterazine-n
- substrate for MDR1 P-glycoprotein (Pgp) [1]: not substrates for Pgp

Molecule: Oc1ccc(Cc2nc3c(Cc4ccccc4)nc(-c4ccc(O)cc4)cn3c2O)cc1 [coelenterazine, Coelenterazine]
- substrate for MDR1 P-glycoprotein (Pgp) ([1]; mammalian cells): is a substrate for MDR1 P-glycoprotein

B3: C124A/A143M: RLuc mutant C124A/A143M (protein)
chain: MASKVYDPEQRKRMITGPQWWARCKQMNVLDSFINYYDSEKHAENAVIFLHGNAASSYLWRHVVPHIEPVARCIIPDLIGMGKSGKSGNGSYRLLDHYKYLTAWFELLNLPKKIIFVGHDWGAALAFHYSYEHQDKIKAIVHMESVVDVIESWDEWPDIEEDIALIKSEEGEKMVLENNFFVETMLPSKIMRKLEPEEFAAYLEPFKEKGEVRRPTLSWPREIPLVKGGKPDVVQIVRNYNAYLRASDDLPKMFIESDPGFFSNAIVEGAKKFPNTEFVKVKGLHFSQEDAPDEMGKYIKSFVERVLKNEQ
- Serum τ1/2 (h) mouse [2]: 30 h
- Activity (relative to RLuc) bc [3]: 1.3
- Activity (relative to RLuc) bdc [3]: 1.6
- Activity (relative to RLuc) cp [3]: 0.95
- Activity (relative to RLuc) n [3]: 1.5
- Activity (relative to RLuc) native [3]: 1.7
- Wavelength (nm) mean [4]: 497 nm
- Wavelength (nm) peak [4]: 480 nm
- Quantum Yield (%) bc [5]: 3.5 ± 0.1%
- Quantum Yield (%) bdc [5]: (6.3 ± 0.7) × 10^−3%
- Quantum Yield (%) cp [5]: 4.8 ± 0.1%
- Quantum Yield (%) n [5]: 5.8 ± 0.2%
- Quantum Yield (%) native [5]: 5.2 ± 0.3%
- Serum τ1/2 (h) rat [6]: 29 h

B6: C124A/K136R: RLuc mutant C124A/K136R (protein)
chain: B3 chain with K136R, M143A
- Serum τ1/2 (h) mouse [2]: 12 h
- Activity (relative to RLuc) bc [3]: 2.1
- Activity (relative to RLuc) bdc [3]: 2.6
- Activity (relative to RLuc) cp [3]: 1.9
- Activity (relative to RLuc) n [3]: 1.9
- Activity (relative to RLuc) native [3]: 2.5 ± 0.3
- Wavelength (nm) mean [4]: 498 nm
- Wavelength (nm) peak [4]: 482 nm
- Quantum Yield (%) bc [5]: 3.3 ± 0.1%
- Quantum Yield (%) bdc [5]: (7.1 ± 0.3) × 10^−3%
- Quantum Yield (%) cp [5]: 5.1 ± 0.1%
- Quantum Yield (%) n [5]: 6.0 ± 0.1%
- Quantum Yield (%) native [5]: 5.4 ± 0.1%
- Serum τ1/2 (h) rat [6]: 11 h

Second part, led by results:

- Activity (relative to RLuc) bc [3]: 3.0
- light output compared to M185V alone ([3]; bisdeoxycoelenterazine (Coelenterazine 400a)): 2 fold
- Activity (relative to RLuc) bdc [3]: 44
- Activity (relative to RLuc) cp [3]: 15
- Activity (relative to RLuc) n [3]: 7.8
- increase in activity compared to the C124A mutant ([3]; in vitro): approximately 3 fold
- Activity (relative to RLuc) native [3]: 3.4
B1: C124A/M185V: double mutant (C124A/M185V) Renilla Luciferase protein (SEQ ID NO: 2) (protein)
chain: B3 chain with M143A, M185V
modifications: Chemically synthesized Renilla Luciferase
- increase in light relative to C124A after transient transfection into mammalian cells (293T cells; mammalian cells (293T or CHO)): approximately 3 fold
- Light output after transient transfection, 293T (293T cells; pcDNA 3.1 CMV plasmid, 24 hours post transfection, coelenterazine): 174.1 ± 25.7 photons × 10^6/s/cm^2/steradian
- Light output after transient transfection, CHO (CHO cells): 172.4 ± 8.4 photons × 10^6/s/cm^2/steradian
- Serum τ1/2 (h) mouse [2]: 5.7 h
- Wavelength (nm) mean [4]: 500 nm
- Wavelength (nm) peak [4]: 485 nm
- Quantum Yield (%) bc [5]: 6.3 ± 0.1%
- Quantum Yield (%) bdc [5]: (174.4 ± 6.7) × 10^−3%
- Quantum Yield (%) cp [5]: 10.1 ± 0.2%
- Quantum Yield (%) n [5]: 9.4 ± 0.4%
- Quantum Yield (%) native [5]: 6.9 ± 0.3%
- Serum τ1/2 (h) rat [6]: 3.7 h

- Activity (relative to RLuc) bc [3]: 1.4
- Activity (relative to RLuc) bdc [3]: 2.6
- Activity (relative to RLuc) cp [3]: 1.7
- Activity (relative to RLuc) n [3]: 1.4
- Activity (relative to RLuc) native [3]: 1.7
B2: C124A/S130A: RLuc mutant C124A/S130A (protein)
chain: B3 chain with S130A, M143A
- Serum τ1/2 (h) mouse [2]: 18 h
- Wavelength (nm) mean [4]: 498 nm
- Wavelength (nm) peak [4]: 482 nm
- Quantum Yield (%) bc [5]: 3.4 ± 0.04%
- Quantum Yield (%) bdc [5]: (6.7 ± 0.3) × 10^−3%
- Quantum Yield (%) cp [5]: 5.0 ± 0.1%
- Quantum Yield (%) n [5]: 5.9 ± 0.2%
- Quantum Yield (%) native [5]: 5.3 ± 0.1%
- Serum τ1/2 (h) rat [6]: 14 h

- Activity (relative to RLuc) bc [3]: 1.4
- Activity (relative to RLuc) bdc [3]: 1.7
- Activity (relative to RLuc) cp [3]: 1.6
- Activity (relative to RLuc) n [3]: 1.6
- Activity (relative to RLuc) native [3]: 1.9
B4: C124A/M253L: RLuc mutant C124A/M253L (protein)
chain: B3 chain with M143A, M253L
- Serum τ1/2 (h) mouse [2]: 15 h
- Wavelength (nm) mean [4]: 488 nm
- Wavelength (nm) peak [4]: 471 nm
- Quantum Yield (%) bc [5]: 3.5 ± 0.1%
- Quantum Yield (%) bdc [5]: (7.6 ± 0.3) × 10^−3%
- Quantum Yield (%) cp [5]: 5.1 ± 0.2%
- Quantum Yield (%) n [5]: 5.8 ± 0.1%
- Quantum Yield (%) native [5]: 5.5 ± 0.1%
- Serum τ1/2 (h) rat [6]: 10 h

- Activity (relative to RLuc) bc [3]: 2.8
- Activity (relative to RLuc) bdc [3]: 9.5
- Activity (relative to RLuc) cp [3]: 3.4
- Activity (relative to RLuc) n [3]: 5.0
- Activity (relative to RLuc) native [3]: 3.9
B5: C124A/S287L: RLuc mutant C124A/S287L (protein)
chain: B3 chain with M143A, S287L
- Serum τ1/2 (h) mouse [2]: 28 h
- Wavelength (nm) mean [4]: 496 nm
- Wavelength (nm) peak [4]: 478 nm
- Quantum Yield (%) bc [5]: 5.0 ± 0.1%
- Quantum Yield (%) bdc [5]: (20.9 ± 0.6) × 10^−3%
- Quantum Yield (%) cp [5]: 7.2 ± 0.3%
- Quantum Yield (%) n [5]: 7.7 ± 0.2%
- Quantum Yield (%) native [5]: 6.1 ± 0.2%
- Serum τ1/2 (h) rat [6]: 20 h

From US7842469B2, “Bioluminescence resonance energy transfer (BRET) systems and methods of use thereof” (Stanford University, priority 2005, dated 2010)
